What was measured:
[1] = molecular target: T1, PKR (Homo sapiens, UniProt P19525 1-551); assay: competition
[2] = molecular target: the molecule itself; assay: single-molecule TIRF two-colour co-localisation
[3] = molecular target: T1, PKR; assay: single-molecule colocalization
[4] = molecular target: PKRΔKD (Homo sapiens, UniProt P19525 1-184, del185-551); assay: single-molecule colocalization
[5] = molecular target: T1, PKR; assay: single-molecule colocalization; remark: listed apart in the source
[6] = molecular target: T1, PKR; assay: competition; remark: listed apart in the source

B1: 33-bp dsRNA (dsRNA)
RNA 1: GGGUUUUCCCAGUCACGACGUUGUAAAACGACG
RNA 2: CGUCGUUUUACAACGUCGUGACUGGGAAAACCC
binding result [1]: binds

B2: PKR(K-E) (K150E and K154E), Cy3-labelled (enzyme, human, UniProt P19525 1-551, looked up)
chain: MAGDLSAGFFMEELNTYRQKQGVVLKYQELPNSGPPHDRRFTFQVIIDGREFPEGEGRSKKEAKNAAAKLAVEILNKEKKAVSPLLLTTTNSSEGLSMGNYIGLINRIAQKKRLTVNYEQCASGVHGPEGFHYKCKMGQKEYSIGTGSTEQEAEQLAAKLAYLQILSEETSVKSDYLSSGSFATTCESQSNSLVTSTLASESSSEGDFSADTSEINSNSDSLNSSSLLMNGLRNNQRKAKRSLAPRFDLPDMKETKYTVDKRFGMDFKEIELIGSGGFGQVFKAKHRIDGKTYVIKRVKYNNEKAEREVKALAKLDHVNIVHYNGCWDGFDYDPETSDDSLESSDYDPENSKNSSRSKTKCLFIQMEFCDKGTLEQWIEKRRGEKLDKVLALELFEQITKGVDYIHSKKLIHRDLKPSNIFLVDTKQVKIGDFGLVTSLKNDGKRTRSKGTLRYMSPEQISSQDYGKEVDLYALGLILAELLHVCDTAFETSKFFTDLRDGIISDIFDKKEKTLLQKLLSKKPEDRPNTSEILRTLTVWKKSPEKNERHTC
modifications: Cy3 at the N-terminus, by sortase-mediated ligation of the peptide Cy3-CLPETGG
binding result [2]: binds

B3: mini-VA (structured_RNA)
RNA: GGGUAUCAUGGCGGACGACCGGGGUUCGAACCCCGGAUCCGGCCGUCCGCCGUGAUACCC
binding result [3]: binds

B4: 79-bp dsRNA (dsRNA)
RNA 1: GGGUUUUCCCAGUCACGACGUUGUAAAACGACGGCCAGUGAAUUCGAGCUCGGUACCCGGGGAUCCUCUAGAGUCGACC
RNA 2: GGUCGACUCUAGAGGAUCCCCGGGUACCGAGCUCGAAUUCACUGGCCGUCGUUUUACAACGUCGUGACUGGGAAAACCC
binding result [4]: binds
binding result [5]: binds

B5: 25-bp dsRNA (dsRNA)
RNA 1: GGGUUUUCCCAGUCACGACGUUGUA
RNA 2: UACAACGUCGUGACUGGGAAAACCC
binding result [6]: binds

Reference: doi:10.1101/2025.07.15.665015 (bioRxiv, 2025)
